Laboratory results reported in patent publication US20150011567.
Positions count from the first letter of the chain named. Names may count otherwise.

Experiments:
[1] = target: T1, biotinylated H4-derived unphosphorylated peptide TVTAMDVVYALKRQGRT
T1 chain: TVTAMDVVYALKRQGRT

[2] = target: purified human H3 recombinant protein (NEB), P20929
[3] = target: purified human H4 recombinant protein (NEB), P62805

B1: purified Ack1 (protein)
chain: MQPEEGTGWLLELLSEVQLQQYFLRLRDDLNVTRLSHFEYVKNEDLEKIGMGRPGQRRLWEAVKRRKALCKRKSWMSKVFSGKRLEAEFPPHHSQSTFRKTSPAPGGPAGEGPLQSLTCLIGEKDLRLLEKLGDGSFGVVRRGEWDAPSGKTVSVAVKCLKPDVLSQPEAMDDFIREVNAMHSLDHRNLIRLYGVVLTPPMKMVTELAPLGSLLDRLRKHQGHFLLGTLSRYAVQVAEGMGYLESKRFIHRDLAARNLLLATRDLVKIGDFGLMRALPQNDDHYVMQEHRKVPFAWCAPESLKTRTFSHASDTWMFGVTLWEMFTYGQEPWIGLNGSQILHKIDKEGERLPRPEDCPQDIYNVMVQCWAHKPEDRPTFVALRDFLLEAQPTDMRALQDFEEPDKLHIQMNDVITVIEGRAENYWWRGQNTRTLCVGPFPRNVVTSVAGLSAQDISQPLQNSFIHTGHGDSDPRHCWGFPDRIDELYLGNPMDPPDLLSVELSTSRPPQHLGGVKKPTYDPVSEDQDPLSSDFKRLGLRKPGLPRGLWLAKPSARVPGTKASRGSGAEVTLIDFGEEPVVPALRPCAPSLAQLAMDACSLLDETPPQSPTRALPRPLHPTPVVDWDARPLPPPPAYDDVAQDEDDFEICSINSTLVGAGVPAGPSQGQTNYAFVPEQARPPPPLEDNLFLPPQGGGKPPSSAQTAEIFQALQQECMRQLQAPAGSPAPSPSPGGDDKPQVPPRVPIPPRPTRPHVQLSPAPPGEEETSQWPGPASPPRVPPREPLSPQGSRTPSPLVPPGSSPLPPRLSSSPGKTMPTTQSFASDPKYATPQVIQAPGPRAGPCILPIVRDGKKVSSTHYYLLPERPSYLERYQRFLREAQSPEEPTPLPVPLLLPPPSTPAPAAPTATVRPMPQAALDPKANFSTNNSNPGARPPPPRATARLPQRGCPGDGPEAGRPADKIQMAMVHGVTTEECQAALQCHGWSVQRAAQYLKVEQLFGLGLRPRGECHKVLEMFDWNLEQAGCHLLGSWGPAHHKR
[1]
  in vitro kinase assay on plate-bound peptide, ELISA with pY88-H4 antibodies: Incubation of H4 peptide with WEE1 and Ack1 protein resulted in robust H4 Tyr88-phosphorylation
[2]
  in vitro kinase reaction, immunoblot with pTyr99-H3 antibody: Ack1 directly phosphorylates histone H3 at Tyr99

B2: purified constitutively active E346K-Ack1 (protein)
chain: B1 chain with E346K
[3]
  in vitro kinase assay, immunoblot with pTyr51-H4 antibody: When purified E346K-Ack1 and H4 were incubated, H4 was Tyr51-phosphorylated
